Test results reported in IntAct's records for PubMed 16407301.

B1: Mitogen-activated protein kinase kinase kinase 3 (Homo sapiens), Q99759 (parent)
chain: MDEQEALNSIMNDLVALQMNRRHRMPGYETMKNKDTGHSNRQSDVRIKFEHNGERRIIAFSRPVKYEDVEHKVTTVFGQPLDLHYMNNELSILLKNQDDLDKAIDILDRSSSMKSLRILLLSQDRNHNSSSPHSGVSRQVRIKASQSAGDINTIYQPPEPRSRHLSVSSQNPGRSSPPPGYVPERQQHIARQGSYTSINSEGEFIPETSEQCMLDPLSSAENSLSGSCQSLDRSADSPSFRKSRMSRAQSFPDNRQEYSDRETQLYDKGVKGGTYPRRYHVSVHHKDYSDGRRTFPRIRRHQGNLFTLVPSSRSLSTNGENMGLAVQYLDPRGRLRSADSENALSVQERNVPTKSPSAPINWRRGKLLGQGAFGRVYLCYDVDTGRELASKQVQFDPDSPETSKEVSALECEIQLLKNLQHERIVQYYGCLRDRAEKTLTIFMEYMPGGSVKDQLKAYGALTESVTRKYTRQILEGMSYLHSNMIVHRDIKGANILRDSAGNVKLGDFGASKRLQTICMSGTGMRSVTGTPYWMSPEVISGEGYGRKADVWSLGCTVVEMLTEKPPWAEYEAMAAIFKIATQPTNPQLPSHISEHGRDFLRRIFVEARQRPSAEELLTHHFAQLMY

Variants of: B1
Conditions: with mk03_human MAPK3, P27361
Sequence of mk03_human MAPK3, P27361 (P27361 whole entry): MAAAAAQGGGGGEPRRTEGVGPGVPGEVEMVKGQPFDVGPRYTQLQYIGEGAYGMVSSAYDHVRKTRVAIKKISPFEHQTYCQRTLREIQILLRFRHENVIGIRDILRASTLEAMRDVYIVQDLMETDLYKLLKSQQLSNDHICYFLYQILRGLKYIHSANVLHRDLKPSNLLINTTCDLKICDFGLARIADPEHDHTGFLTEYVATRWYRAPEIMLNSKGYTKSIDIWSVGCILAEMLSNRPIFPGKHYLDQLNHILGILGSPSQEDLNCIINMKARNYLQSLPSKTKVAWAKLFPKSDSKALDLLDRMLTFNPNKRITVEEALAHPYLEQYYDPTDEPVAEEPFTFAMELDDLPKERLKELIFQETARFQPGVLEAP

effect of a mutation on the interaction | Variant
disrupting interaction | T530A
disrupting interaction | K391M
disrupting interaction | S526A
